What was measured:
[1] = biological target: Type I gelatin (heat-denatured acid-soluble type I atelocollagen from bovine hides) (bovine); test: ELISA
[2] = biological target: V-(GXY)26 (Streptococcus pyogenes); test: MST; NanoTemper Monolith NT.115, Protein Labeling Kit RED-NHS; 50 mM HEPES pH 7.5, 150 mM NaCl, 10 mM CaCl2, 10 µM ZnCl2, 0.05% Tween-20, 3 mM NaN3; without ß-mercaptoethanol (nonreducing) (Fig. 5F)
[3] = biological target: V-(GXY)26 (Streptococcus pyogenes); test: MST; NanoTemper Monolith NT.115, Protein Labeling Kit RED-NHS; 50 mM HEPES pH 7.5, 150 mM NaCl, 10 mM CaCl2, 10 µM ZnCl2, 0.05% Tween-20, 3 mM NaN3; with 1 mM ß-mercaptoethanol (reducing) (Fig. 5F)
[4] = biological target: Acid-soluble type I atelocollagen from bovine hides (bovine) (UniProt P02453); test: ELISA
Acid-soluble type I atelocollagen from bovine hides (bovine), sequence (P02453 162-1217, chain 1 of 2): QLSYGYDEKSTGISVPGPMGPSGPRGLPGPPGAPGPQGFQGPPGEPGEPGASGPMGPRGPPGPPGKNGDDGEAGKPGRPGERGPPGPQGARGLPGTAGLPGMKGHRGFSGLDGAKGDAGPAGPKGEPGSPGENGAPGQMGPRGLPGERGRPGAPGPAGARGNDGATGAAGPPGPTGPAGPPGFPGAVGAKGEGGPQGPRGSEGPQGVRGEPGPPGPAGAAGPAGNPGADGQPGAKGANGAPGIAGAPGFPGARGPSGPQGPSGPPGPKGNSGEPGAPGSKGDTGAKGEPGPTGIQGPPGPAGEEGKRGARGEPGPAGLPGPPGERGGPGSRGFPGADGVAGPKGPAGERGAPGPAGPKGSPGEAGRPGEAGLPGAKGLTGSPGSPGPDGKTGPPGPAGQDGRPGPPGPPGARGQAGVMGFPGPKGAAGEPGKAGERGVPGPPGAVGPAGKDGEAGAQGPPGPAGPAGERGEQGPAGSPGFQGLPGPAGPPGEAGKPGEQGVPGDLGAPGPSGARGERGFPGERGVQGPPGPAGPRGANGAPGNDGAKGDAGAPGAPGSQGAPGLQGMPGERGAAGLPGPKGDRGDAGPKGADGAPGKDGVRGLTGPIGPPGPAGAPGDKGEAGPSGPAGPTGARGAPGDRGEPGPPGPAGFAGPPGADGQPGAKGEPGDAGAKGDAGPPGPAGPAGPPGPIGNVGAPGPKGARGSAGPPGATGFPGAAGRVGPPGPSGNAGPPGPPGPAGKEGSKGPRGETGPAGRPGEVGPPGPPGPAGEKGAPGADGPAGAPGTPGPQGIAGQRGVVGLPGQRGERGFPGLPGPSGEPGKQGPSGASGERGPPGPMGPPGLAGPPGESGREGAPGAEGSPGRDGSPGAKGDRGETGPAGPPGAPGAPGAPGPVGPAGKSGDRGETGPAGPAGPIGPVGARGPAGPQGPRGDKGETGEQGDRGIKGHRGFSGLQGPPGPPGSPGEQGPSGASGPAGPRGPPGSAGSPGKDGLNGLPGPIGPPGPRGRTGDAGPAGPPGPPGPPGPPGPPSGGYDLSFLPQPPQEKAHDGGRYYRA
Acid-soluble type I atelocollagen from bovine hides (bovine), sequence (P02465 80-1117, chain 2 of 2, further chain): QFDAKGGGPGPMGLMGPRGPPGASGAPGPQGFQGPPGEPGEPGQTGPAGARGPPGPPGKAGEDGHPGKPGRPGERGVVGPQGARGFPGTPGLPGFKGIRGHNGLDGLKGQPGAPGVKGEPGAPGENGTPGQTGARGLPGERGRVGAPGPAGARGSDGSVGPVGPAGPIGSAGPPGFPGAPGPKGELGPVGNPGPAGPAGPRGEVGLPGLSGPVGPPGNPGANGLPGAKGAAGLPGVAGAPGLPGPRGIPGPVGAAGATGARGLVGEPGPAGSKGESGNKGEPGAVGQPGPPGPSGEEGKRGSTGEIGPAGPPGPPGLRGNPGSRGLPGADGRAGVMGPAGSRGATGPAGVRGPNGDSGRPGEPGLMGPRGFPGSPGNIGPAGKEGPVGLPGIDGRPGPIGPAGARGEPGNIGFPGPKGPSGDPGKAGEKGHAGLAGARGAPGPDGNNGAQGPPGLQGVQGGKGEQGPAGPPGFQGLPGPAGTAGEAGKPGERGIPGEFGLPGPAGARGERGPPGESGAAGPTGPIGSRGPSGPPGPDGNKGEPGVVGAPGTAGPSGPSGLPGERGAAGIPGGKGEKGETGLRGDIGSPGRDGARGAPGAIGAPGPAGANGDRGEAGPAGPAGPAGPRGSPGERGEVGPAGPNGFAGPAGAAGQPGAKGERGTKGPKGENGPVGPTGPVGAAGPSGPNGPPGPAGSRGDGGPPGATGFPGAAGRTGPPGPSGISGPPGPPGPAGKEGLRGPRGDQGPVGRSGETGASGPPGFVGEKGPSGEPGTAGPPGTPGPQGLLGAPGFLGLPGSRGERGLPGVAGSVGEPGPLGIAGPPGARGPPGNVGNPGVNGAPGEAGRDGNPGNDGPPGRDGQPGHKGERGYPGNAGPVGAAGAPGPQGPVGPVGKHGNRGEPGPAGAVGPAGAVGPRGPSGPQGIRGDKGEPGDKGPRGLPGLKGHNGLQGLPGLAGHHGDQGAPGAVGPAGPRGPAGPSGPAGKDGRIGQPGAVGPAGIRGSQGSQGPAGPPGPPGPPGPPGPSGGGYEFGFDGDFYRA

[5] = biological target: type I gelatin (heat-denatured acid-soluble type I atelocollagen from bovine hides) (bovine) (UniProt P02453); test: ELISA
type I gelatin (heat-denatured acid-soluble type I atelocollagen from bovine hides) (bovine), sequence (P02453 23-1217, chain 1 of 2): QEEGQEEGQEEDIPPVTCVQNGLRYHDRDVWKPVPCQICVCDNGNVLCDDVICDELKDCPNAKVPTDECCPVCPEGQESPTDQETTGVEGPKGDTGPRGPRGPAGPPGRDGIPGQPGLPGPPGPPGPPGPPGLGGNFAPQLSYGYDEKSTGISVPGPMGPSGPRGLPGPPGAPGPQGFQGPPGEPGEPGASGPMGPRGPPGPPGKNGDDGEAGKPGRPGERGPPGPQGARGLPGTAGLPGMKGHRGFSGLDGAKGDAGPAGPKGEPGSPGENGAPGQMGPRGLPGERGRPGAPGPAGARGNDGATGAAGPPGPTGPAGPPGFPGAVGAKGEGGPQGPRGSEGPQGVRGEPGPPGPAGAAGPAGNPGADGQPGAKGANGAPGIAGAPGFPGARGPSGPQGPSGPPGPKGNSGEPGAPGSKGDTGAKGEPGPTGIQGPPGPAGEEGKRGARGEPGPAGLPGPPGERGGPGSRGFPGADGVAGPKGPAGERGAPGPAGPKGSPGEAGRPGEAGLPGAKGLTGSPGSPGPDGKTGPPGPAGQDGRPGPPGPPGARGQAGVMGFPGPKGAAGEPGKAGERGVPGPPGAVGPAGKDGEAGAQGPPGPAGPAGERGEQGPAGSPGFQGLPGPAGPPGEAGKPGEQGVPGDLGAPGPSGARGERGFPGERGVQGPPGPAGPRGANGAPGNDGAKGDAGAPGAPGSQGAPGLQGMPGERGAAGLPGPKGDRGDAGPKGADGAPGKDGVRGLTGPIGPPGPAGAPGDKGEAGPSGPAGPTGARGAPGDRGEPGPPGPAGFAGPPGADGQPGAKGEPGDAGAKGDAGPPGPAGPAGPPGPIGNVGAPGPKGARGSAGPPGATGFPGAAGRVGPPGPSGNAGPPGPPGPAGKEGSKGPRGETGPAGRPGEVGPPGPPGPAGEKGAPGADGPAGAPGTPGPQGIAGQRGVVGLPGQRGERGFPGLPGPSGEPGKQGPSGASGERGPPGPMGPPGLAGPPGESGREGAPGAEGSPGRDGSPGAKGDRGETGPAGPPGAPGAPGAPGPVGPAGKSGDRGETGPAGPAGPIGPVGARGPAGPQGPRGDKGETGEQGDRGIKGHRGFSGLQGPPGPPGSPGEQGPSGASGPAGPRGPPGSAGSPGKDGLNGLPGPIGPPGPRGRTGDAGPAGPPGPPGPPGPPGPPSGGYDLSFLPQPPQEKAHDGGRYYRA
type I gelatin (heat-denatured acid-soluble type I atelocollagen from bovine hides) (bovine), sequence (P02465 80-1117, chain 2 of 2, further chain): as the sequence (P02465 80-1117, chain 2 of 2, further chain) above

[6] = biological target: Type I gelatin (heat-denatured acid-soluble type I atelocollagen from bovine hides) (bovine); test: ELISA; indirect ELISA; gelatin immobilised, ColQ1-CU G472V variants in solution; 37 °C (Fig. 4B)
[7] = biological target: Acid-soluble type I atelocollagen from bovine hides (bovine) (UniProt P02453); test: ELISA; indirect ELISA; soluble collagen immobilised, ColQ1-CU G472V variants in solution; 25 °C to preserve the triple-helical fold (Fig. 4C)
[8] = biological target: Type I gelatin (heat-denatured acid-soluble type I atelocollagen from bovine hides); test: indirect ELISA; settings: 37 °C; parent: est. 1.5 µM; read off a plot
[9] = biological target: V-domain of Scl2.3 (Streptococcus pyogenes); test: SDS-PAGE (SDS-stable oligomer); 12% nonreducing SDS-PAGE of 10 µM V-(GXY)26 incubated with or without ColG-CU at 25 °C (Fig. 2C)
[10] = biological target: Acid-soluble type I atelocollagen from bovine hides (bovine, UniProt P02453 162-1217; P02465 80-1117); test: ELISA; settings: both partners purified
Acid-soluble type I atelocollagen from bovine hides, sequence (P02453 162-1217, chain 1 of 2): as the sequence (P02453 162-1217, chain 1 of 2) above
Acid-soluble type I atelocollagen from bovine hides, sequence (P02465 80-1117, chain 2 of 2): as the sequence (P02465 80-1117, chain 2 of 2, further chain) above

[11] = biological target: T1, soluble type I collagen (acid-soluble type I atelocollagen from bovine hides) (bovine, UniProt P02453 162-1217; P02465 80-1117); test: ELISA; settings: both partners purified
T1 construct: also called soluble collagen; tropocollagen
T1 sequence (P02453 162-1217, chain 1 of 2): as the sequence (P02453 162-1217, chain 1 of 2) above
T1 sequence (P02465 80-1117, chain 2 of 2): as the sequence (P02465 80-1117, chain 2 of 2, further chain) above

“ColG-AD (Y119-S392) (from UniProt Q9X721 119-392) (domain or fragment)” gave a Kd [1] of 0.11 µM.

With “ColG-CBD2 (N1004-K1118) (from UniProt Q9X721 1004-1118) (domain or fragment)” the Kd [1] was 253 µM.

“ColG-CU CL4-G494V, crosslinked (domain or fragment)” was tested, and the Kd [2] was 36 µM.

“ColG-CU CL4-G494V, noncrosslinked (reduced) (domain or fragment)” was tested, and the Kd [3] was 2.9 µM.

“ColG-CU E524A (Y119-G790) (domain or fragment)” gave a Kd [1] of 0.08 µM and a Kd [4] of 0.37 µM.

For “ColG-FL E524A (Y119-K1118) (from UniProt Q9X721 119-1118) (enzyme)”, the Kd [1] was 0.031 µM and the Kd [4] was 0.024 µM.

Work on “ColG-PD E524A (D398-G790) (domain or fragment)” yielded a Kd [1] of 243 µM and a Kd [4] of 497 µM.

With “ColG-PKD (I799-N880) (from UniProt Q9X721 799-880) (domain or fragment)” the Kd [5] was greater than 1000 µM.

ColQ1-CU G472V (domain or fragment) was tested, and the Kd [6] was 1.6 µM and the Kd [7] was 1.6 µM.

For ColQ1-CU G472V E166A, the Kd [8] was 4.8 µM.

ColQ1-CU G472V F123A showed a Kd [8] of 1.5 µM.

Work on ColQ1-CU G472V F176A yielded a Kd [8] of 1.1 µM.

“ColQ1-CU G472V F176A (domain or fragment)” was tested, and the fold increase in affinity against ColQ1-CU G472V [7] was 20 fold.

In the case of “ColQ1-CU G472V N226A (domain or fragment)”, the Kd [6] is reported as greater than 150 µM and the Kd [7] is reported as greater than 150 µM.

ColQ1-CU G472V R169A gave a Kd [8] of 2.7 µM.

“ColQ1-CU G472V R169A (domain or fragment)” showed a fold increase in affinity against ColQ1-CU G472V [7] of 9 fold.

For “ColQ1-CU G472V Y173A (domain or fragment)”, the fold drop in binding affinity against ColQ1-CU G472V [6] was 15 fold.

“ColQ1-CU G472V Y270A (domain or fragment)” showed a fold increase in affinity against ColQ1-CU G472V [7] of 8 fold.

In the case of V-domain of Scl2.3 (domain or fragment), the stoichiometry N [9] is reported as 3.

B1: ColG-AD (Y119-S392) (domain or fragment)
chain: YDFEYLNGLSYTELTNLIKNIKWNQINGLFNYSTGSQKFFGDKNRVQAIINALQESGRTYTANDMKGIETFTEVLRAGFYLGYYNDGLSYLNDRNFQDKCIPAMIAIQKNPNFKLGTAVQDEVITSLGKLIGNASANAEVVNNCVPVLKQFRENLNQYAPDYVKGTAVNELIKGIEFDFSGAAYEKDVKTMPWYGKIDPFINELKALGLYGNITSATEWASDVGIYYLSKFGLYSTNRNDIVQSLEKAVDMYKYGKIAFVAMERITWDYDGIGS
modifications: fluorescently labeled in the fibrillar collagen assay (dye not stated)
notes: source: E. coli Nico21 (DE3), purified
B1 showed a Kd [10] of 0.072 ± 0.009 µM.

B2: ColG-PKD (I799-N880) (domain or fragment)
chain: IAKVTGPSTGAVGRNIEFSGKDSKDEDGKIVSYDWDFGDGATSRGKNSVHAYKKAGTYNVTLKVTDDKGATATESFTIEIKN
notes: as for B1
B2 was tested, and the Kd [11] was greater than 1000 µM.

B3: ColG-CBD2 (N1004-K1118) (domain or fragment)
chain: NEKLKEKENNDSSDKATVIPNFNTTMQGSLLGDDSRDYYSFEVKEEGEVNIELDKKDEFGVTWTLHPESNINDRITYGQVDGNKVSNKVKLRPGKYYLLVYKYSGSGNYELRVNK
modifications: fluorescently labeled in the fibrillar collagen assay (dye not stated)
notes: as for B1
In the case of B3, the Kd [10] is reported as 14 ± 1 µM.
